According to publication PMC6609762:

Columns and labels:
[1] = molecular target: SK2aG88‐Pm complex (streptokinase of group G Streptococcus G88 with plasmin) (group G Streptococcus (GGS) strain G88 | human)
[2] = molecular target: SK2bALAB49‐Pm complex (streptokinase of group A Streptococcus ALAB49 with plasmin) (group A Streptococcus (GAS) strain ALAB49 | human)
[3] = molecular target: SKC2 (2b_(ALAB)‐2aG88‐2b_(ALAB))‐Pm complex (group A Streptococcus (GAS) strain ALAB49 | group G Streptococcus (GGS) strain G88 | human)
[4] = molecular target: SKC1 (2aG88‐2b_(ALAB)‐2aG88)‐Pm complex (group G Streptococcus (GGS) strain G88 | group A Streptococcus (GAS) strain ALAB49 | human)
[5] = molecular target: SK2aG88‐Pm complex (streptokinase of group G Streptococcus G88 with plasmin) (group G Streptococcus (GGS) strain G88 | human); remark: listed apart in the source
[6] = molecular target: SK2bALAB49‐Pm complex (streptokinase of group A Streptococcus ALAB49 with plasmin) (group A Streptococcus (GAS) strain ALAB49 | human); remark: listed apart in the source
[7] = molecular target: SKC2 (2b_(ALAB)‐2aG88‐2b_(ALAB))‐Pm complex (group A Streptococcus (GAS) strain ALAB49 | group G Streptococcus (GGS) strain G88 | human); remark: listed apart in the source
[8] = molecular target: SKC1 (2aG88‐2b_(ALAB)‐2aG88)‐Pm complex (group G Streptococcus (GGS) strain G88 | group A Streptococcus (GAS) strain ALAB49 | human); remark: listed apart in the source

Molecule | K m of the proteolytic activity (substrate affinity): 100 nM SK, Pg 0.3–5.0 µM as substrate, 0.1 mM S2251, absorbance at 405 nM [1] [µM] | K m of the proteolytic activity (substrate affinity): 100 nM SK, Pg 0.3–5.0 µM as substrate, 0.1 mM S2251, absorbance at 405 nM [2] [µM] | K m of the proteolytic activity (substrate affinity): 100 nM SK, Pg 0.3–5.0 µM as substrate, 0.1 mM S2251, absorbance at 405 nM [3] [µM] | K m of the proteolytic activity (substrate affinity): 100 nM SK, Pg 0.3–5.0 µM as substrate, 0.1 mM S2251, absorbance at 405 nM [4] [µM] | retained activity (S‐2251 hydrolysis) of the SK‐Pm complex (20 nM) after 15 min with α2‐AP 100–400 nM, relative to no inhibitor; value at 400 nM [5] [%] | retained activity (S‐2251 hydrolysis) of the SK‐Pm complex (20 nM) after 15 min with α2‐AP 100–400 nM, relative to no inhibitor; value at 400 nM [6] [%] | retained activity (S‐2251 hydrolysis) of the SK‐Pm complex (20 nM) after 15 min with α2‐AP 100–400 nM, relative to no inhibitor; value at 400 nM [7] [%] | retained activity (S‐2251 hydrolysis) of the SK‐Pm complex (20 nM) after 15 min with α2‐AP 100–400 nM, relative to no inhibitor; value at 400 nM [8] [%]
plasminogen (natural protein) | 0.77 | 7.92 | 3.45 | 2.05 |  |  |  | 
alpha 2‐antiplasmin (natural protein) NQEQVSPLTLLKLGNQEPGGQTALKSPPGVCSRDPTPEQTHRLARAMMAFTADLFSLVAQTSTCPNLILSPLSVALALSHLALGAQNHTLQRLQQVLHAGSGPCLPHLLSRLCQDLGPGAFRLAARMYLQKGFPIKEDFLEQSEQLFGAKPVSLTGKQEDDLANINQWVKEATEGKIQEFLSGLPEDTVLLLLNAIHFQGFWRNKFDPSLTQRDSFHLDEQFTVPVEMMQARTYPLRWFLLEQPEIQVAHFPFKNNMSFVVLVPTHFEWNVSQVLANLSWDTLHPPLVWERPTKVRLPKLYLKHQMDLVATLSQLGLQELFQAPDLRGISEQSLVVSGVQHQSTLELSEVGVEAAAATSIAMSRMSLSSFSVNRPFLFFIFEDTTGLPLFVGSVRNPNPSAPRELKEQQDSPGNKDFLQSLKGFPRGDKLFGPDLKLVPPMEEDYPQFGSPK |  |  |  |  | 80 | 50 | 80 | 50
